22 molecules from patent publication US20110301335A1 (published 2011) can be followed below.

To fix the notation:
T1: human TNFR1 on MRC-5 cells (human, UniProt P19438 30-455)
T1 sequence (looked up): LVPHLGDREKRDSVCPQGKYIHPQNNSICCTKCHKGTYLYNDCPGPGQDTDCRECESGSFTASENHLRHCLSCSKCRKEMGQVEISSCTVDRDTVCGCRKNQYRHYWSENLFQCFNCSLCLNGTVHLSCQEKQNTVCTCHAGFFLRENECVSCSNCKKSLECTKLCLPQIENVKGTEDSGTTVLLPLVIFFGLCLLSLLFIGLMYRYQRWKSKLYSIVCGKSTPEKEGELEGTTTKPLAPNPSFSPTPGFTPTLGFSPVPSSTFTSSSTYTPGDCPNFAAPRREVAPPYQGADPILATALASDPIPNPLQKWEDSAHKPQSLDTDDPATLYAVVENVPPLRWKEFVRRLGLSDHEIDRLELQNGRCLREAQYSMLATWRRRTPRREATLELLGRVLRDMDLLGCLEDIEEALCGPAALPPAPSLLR

B1: DMS0124 (bispecific antibody)
chain: EVQLLESGGGLVQPGGSLRLSCAASGFTFVKYSMGWVRQAPGKGLEWVSQISNTADRTYYAHSVKGRFTISRDNSKNTLYLQMNSLRAEDTAVYYCAIYTGRWVPFEYWGQGTLVTVSSASGGGGSGGGGSGGGGSDIQMTQSPSSLSASVGDRVTITCRASQWIGSQLSWYQQKPGKAPKLLIMWRSSLQSGVPSRFSGSGSGTDFTLTISSLQPEDFATYYCAQGLMKPMTFGQGTKVEIKR
B2: DMS0188 (bispecific antibody)
chain: EVQLLESGGGLVQPGGSLRLSCAASGFTFVKYSMGWVRQAPGKGPEWVSQISNTGDRTYYADSVKGRFTISRDNSKNTLYLQMNSLRAEDTAVYYCAIYTGRWEPFDYWGQGTLVTVSSASTSGPSDIQMTQSPSSLSASVGDRVTITCRASRPIGTMLSWYQQKPGKAPKLLILFGSRLQSGVPSRFSGSGSGTDFTLTISSLQPEDFATYYCAQAGTHPTTFGQGTKVEIKRAAAEQKLISEEDLN
B3: DMS0169 (bispecific antibody)
chain: EVQLLESGGGLVQPGGSLRLSCAASGFTFVKYSMGWVRQAPGKGLEWVSQISNTADRTYYAHSVKGRFTISRDNSKNTLYLQMNSLRAEDTAVYYCAIYTGRWVPFEYWGQGTLVTVSSASTSGPSDIQMTQSPSSLSASVGDRVTITCRASRPIGTMLSWYQQKPGKAPKLLILFGSRLQSGVPSRFSGSGSGTDFTLTISSLQPEDFATYYCAQAGTHPTTFGQGTKVEIKRAAAEQKLISEEDLN
B4: DMS0163 (bispecific antibody)
chain: EVQLLESGGGLVQPGGSLRLSCAASGFTFVKYSMGWVRQAPGKGPEWVSQISNTGDRTYYADSVKGRFTISRDNSKNTLYLQMNSLRAEDTAVYYCAIYTGRWEPFDYWGQGTLVTVSSASTSGPSDIQMTQSPSSLSASVGDRVTITCRASRPIGTMLSWYQQKPGKAPKLLILAFSRLQSGVPSRFSGSGSGTDFTLTISSLQPEDFATYYCAQAGTHPTTFGQGTKVEIKRAAAEQKLISEEDLN
B5: DMS0111 (bispecific antibody)
chain: EVQLLESGGGLVQPGGSLRLSCAASGFTFVKYSMGWVRQAPGKGLEWVSQISNTADRTYYAHSVKGRFTISRDNSKNTLYLQMNSLRAEDTAVYYCAIYTGRWVPFEYWGQGTLVTVSSASTDIQMTQSPSSLSASVGDRVTITCRASRPIGTTLSWYQQKPGKAPKLLILWNSRLQSGVPSRFSGSGSGTDFTLTISSLQPEDFATYYCAQAGTHPTTFGQGTKVEIKR
B6: DMS0112 (bispecific antibody)
chain: EVQLLESGGGLVQPGGSLRLSCAASGFTFVKYSMGWVRQAPGKGLEWVSQISNTADRTYYAHSVKGRFTISRDNSKNTLYLQMNSLRAEDTAVYYCAIYTGRWVPFEYWGQGTLVTVSSASTDIQMTQSPSSLSASVGDRVTITCRASRPIGTMLSWYQQKPGKAPKLLILFGSRLQSGVPSRFSGSGSGTDFTLTISSLQPEDFATYYCAQAGTHPTTFGQGTKVEIKR
B7: DMS0182 (bispecific antibody)
chain: EVQLLESGGGLVQPGGSLRLSCAASGFTFVKYSMGWVRQAPGKGPEWVSQISNTGDRTYYADSVKGRFTISRDNSKNTLYLQMNSLRAEDTAVYYCAIYTGRWEPFDYWGQGTLVTVSSASTDIQMTQSPSSLSASVGDRVTITCRASRPIGTTLSWYQQKPGKAPKLLIWFGSRLQSGVPSRFSGSGSGTDFTLTISSLQPEDFATYYCAQAGTHPTTFGQGTKVEIKRAAAEQKLISEEDLN
B8: DMS0186 (bispecific antibody)
chain: EVQLLESGGGLVQPGGSLRLSCAASGFTFVKYSMGWVRQAPGKGPEWVSQISNTGDRTYYADSVKGRFTISRDNSKNTLYLQMNSLRAEDTAVYYCAIYTGRWEPFDYWGQGTLVTVSSASTDIQMTQSPSSLSASVGDRVTITCRASRPIGTMLSWYQQKPGKAPKLLILFGSRLQSGVPSRFSGSGSGTDFTLTISSLQPEDFATYYCAQAGTHPTTFGQGTKVEIKRAAAEQKLISEEDLN
B9: DMS0184 (bispecific antibody)
chain: EVQLLESGGGLVQPGGSLRLSCAASGFTFVKYSMGWVRQAPGKGPEWVSQISNTGDRTYYADSVKGRFTISRDNSKNTLYLQMNSLRAEDTAVYYCAIYTGRWEPFDYWGQGTLVTVSSASTSGPSDIQMTQSPSSLSASVGDRVTITCRASRPIGTTLSWYQQKPGKAPKLLIWFGSRLQSGVPSRFSGSGSGTDFTLTISSLQPEDFATYYCAQAGTHPTTFGQGTKVEIKR
B10: DMS0115 (bispecific antibody)
chain: EVQLLESGGGLVQPGGSLRLSCAASGFTFVKYSMGWVRQAPGKGLEWVSQISNTADRTYYAHSVKGRFTISRDNSKNTLYLQMNSLRAEDTAVYYCAIYTGRWVPFEYWGQGTLVTVSSASTSGPSDIQMTQSPSSLSASVGDRVTITCRASRPIGTTLSWYQQKPGKAPKLLILWNSRLQSGVPSRFSGSGSGTDFTLTISSLQPEDFATYYCAQAGTHPTTFGQGTKVEIKR
B11: DMS0116 (bispecific antibody)
chain: EVQLLESGGGLVQPGGSLRLSCAASGFTFVKYSMGWVRQAPGKGLEWVSQISNTADRTYYAHSVKGRFTISRDNSKNTLYLQMNSLRAEDTAVYYCAIYTGRWVPFEYWGQGTLVTVSSASTSGPSDIQMTQSPSSLSASVGDRVTITCRASRPIGTMLSWYQQKPGKAPKLLILFGSRLQSGVPSRFSGSGSGTDFTLTISSLQPEDFATYYCAQAGTHPTTFGQGTKVEIKR
B12: DMS0168 (bispecific antibody)
chain: EVQLLESGGGLVQPGGSLRLSCAASGFTFVKYSMGWVRQAPGKGLEWVSQISNTADRTYYAHSVKGRFTISRDNSKNTLYLQMNSLRAEDTAVYYCAIYTGRWVPFEYWGQGTLVTVSSASTSGPSDIQMTQSPSSLSASVGDRVTITCRASQSIIKHLKWYQQKPGKAPKLLIYGASRLQSGVPSRFSGSGSGTDFTLTISSLQPEDFATYYCQQGARWPQTFGQGTKVEIKRAAAEQKLISEEDLN
B13: DMS0118 (bispecific antibody)
chain: EVQLLESGGGLVQPGGSLRLSCAASGFTFVKYSMGWVRQAPGKGLEWVSQISNTADRTYYAHSVKGRFTISRDNSKNTLYLQMNSLRAEDTAVYYCAIYTGRWVPFEYWGQGTLVTVSSASTSGPSDIQMTQSPSSLSASVGDRVTITCRASQWIGSQLSWYQQKPGKAPKLLIMWRSSLQSGVPSRFSGSGSGTDFTLTISSLQPEDFATYYCAQGLMKPMTFGQGTKVEIKR
B14: DMS0121 (bispecific antibody)
chain: EVQLLESGGGLVQPGGSLRLSCAASGFTFVKYSMGWVRQAPGKGLEWVSQISNTADRTYYAHSVKGRFTISRDNSKNTLYLQMNSLRAEDTAVYYCAIYTGRWVPFEYWGQGTLVTVSSASGGGGSGGGGSGGGGSDIQMTQSPSSLSASVGDRVTITCRASRPIGTTLSWYQQKPGKAPKLLILWNSRLQSGVPSRFSGSGSGTDFTLTISSLQPEDFATYYCAQAGTHPTTFGQGTKVEIKR
B15: DOM1h-574 (other)
VH: EVQLLESGGGLVQPGGSLRLSCAASGFTFVKYSMGWVRQAPGKGLEWVSQISNTGGHTYYADSVKGRFTISRDNSKNTLYLQMNSLRAEDTAVYYCAKYTGRWEPFDYWGQGTLVTVSS
B16: DOM1h-574-16 (other)
VH: EVQLLESGGGLVQPGGSLRLSCAASGFTFVKYSMGWVRQAPGKGPEWVSQISNTGDRTYYADSVKGRFTISRDNSKNTLYLQMNSLRAEDTAVYYCAIYTGRWEPFDYWGQGTLVTVSS
B17: DOM1h-574-17 (other)
VH: EVQLLESGGGLVQPGGSLRLSCAASGFTFVKYSMGWVRQAPGKGPEWVSQISNTGDHTYYADSVKGRFTISRDNSKNTLYLQMNSLRAEDTAVYYCAIYTGRWEPFDYWGQGTLVTVSS
B18: DOM1h-574-15 (other)
VH: EVQLLESGGGLVQPGGSLRLSCAASGFTFVKYSMGWVRQAPGKGLEWVSQISNTGDHTYYADSVKGRFTISRDNSKNTLYLQMNSLRAEDTAVYYCAIYTGRWEPFDYWGQGTLVTVSS
B19: DOM1h-574-12 (other)
VH: EVQLLESGGGLVQPGGSLRLSCAASGFTFVKYSMGWVRQAPGKGLEWVSQISNTGDHTYYADSVKGRFTISRDNSKNTLYLQMNSLRAEDTAVYYCAKYTGRWEPFDYWGQGTLVTVSS
B20: DOM1h-574-8 (other)
VH: EVQLLESGGGLVQPGGSLRLSCAASGFTFVKYSMGWVRQAPGKGPEWVSQISNTGGHTYYADSVKGRFTISRDNSKNTLYLQMNSLRAEDTAVYYCAIYTGRWEPFDYWGQGTLVTVSS
B21: DOM1h-574-11 (other)
VH: EVQLLESGGGLVQPGGSLRLSCAASGFTFVKYSMGWVRQAPGKGLEWVSQISNTGGHTYYADSVKGRFTISRDNSKNTLYLQMNSLRAEDTAVYYCAKYTGRWEPFDHWGQGTLVTVSS
B22: DOM1h-574-13 (other)
VH: EVQLLESGGGLVQPGGSLRLSCAASGFTFVKYSMGWVRQAPGKGLEWVSQISNTGDRTYYADSVKGRFTISRDNSKNTLYLQMNSLRAEDTAVYYCAKYTGRWEPFDYWGQGTLVTVSS

The first test concerns the target T1, human TNFR1 on MRC-5 cells. Description: cell-based or functional assay.
With B1, the MRC5 (ND50 in nM) was 1.9 nM.

Consider B2, for which the ND50 (MRC5) was 17 nM.

The molecule B3 showed an ND50 (MRC5) of 2.7 nM.

B4 displayed an ND50 (MRC5) of 12 nM.

B5 returned an MRC5 (ND50 in nM) of 1.6 nM.

B6 registered an MRC5 (ND50 in nM) of 1.3 nM.

On to B7, for which the ND50 (MRC5) turned out to be 6 nM.

B8 gave an ND50 (MRC5) of 20 nM.

The molecule B9 registered an ND50 (MRC5) of 19 nM.

B10 displayed an MRC5 (ND50 in nM) of 1.7 nM.

In the case of B11, the MRC5 (ND50 in nM) was determined as 1.7 nM.

As for B12, the ND50 (MRC5) was 16 nM.

Molecule B13 registered an MRC5 (ND50 in nM) of 1.4 nM.

B14 returned an MRC5 (ND50 in nM) of 1.8 nM.

A further test has as its target T1, human TNFR1 on MRC-5 cells. Description: cell-based or functional assay. This is another data set of the same source.
Consider B15, for which the “MRC-5 EC50, fold of the EC50 of DOM1h-574-16” value is about 200 fold.

In the case of B16, the “MRC-5 EC50” value was determined as 8 nM.

For B17, the “MRC-5 EC50” value was determined as 20 nM.

For the molecule B18, the “MRC-5 EC50” value was found to be 300 nM.

Turning to B19, the “MRC-5 EC50” value turned out to be 130 nM.

As for B20, the “MRC-5 EC50” value came to 10 nM.

Turning to B21, the “MRC-5 EC50” value came to 800 nM.

On to B22, for which the “MRC-5 EC50” value was determined as 300 nM.
